The record followed here is paper PMC10829871.

For this test, the target named is Recombinant human LILRB4 protein (ECD, hFc Tag) (human) (UniProt Q8NHJ6). Kind of test: BLI. (In general: In BLI a coated tip is dipped into the sample, and binding shifts an interference pattern.)
UniProt Q8NHJ6, sequence (Q8NHJ6 22-259): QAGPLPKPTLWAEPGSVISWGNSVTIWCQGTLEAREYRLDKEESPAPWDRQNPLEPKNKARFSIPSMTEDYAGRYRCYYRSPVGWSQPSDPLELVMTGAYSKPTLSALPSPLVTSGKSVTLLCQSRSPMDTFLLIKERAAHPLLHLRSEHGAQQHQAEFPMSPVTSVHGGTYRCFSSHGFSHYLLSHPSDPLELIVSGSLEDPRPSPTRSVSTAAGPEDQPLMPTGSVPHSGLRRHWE

As a reminder, the Kd is the concentration at which binding is half-saturated. What is called koff is the first-order rate constant of dissociation. As for “Recombinant human Galectin 8/LGALS8 protein (from UniProt O00214 1-317) (natural protein)”, the Kd came to 1020 nM and the koff was determined as 0.131 s⁻¹.
